Laboratory results reported in PMC6803640, “Oligomeric state, hydrodynamic properties and target recognition of human Calcium and Integrin Binding protein 2 (CIB2)” (Scientific Reports, 2019).
Entries after “also recorded” stand apart in the source; their conditions may differ.

Biological target: T1, human CIB2 (Homo sapiens, UniProt O75838)
T1 construct: made in house
T1 sequence (O75838 1-187): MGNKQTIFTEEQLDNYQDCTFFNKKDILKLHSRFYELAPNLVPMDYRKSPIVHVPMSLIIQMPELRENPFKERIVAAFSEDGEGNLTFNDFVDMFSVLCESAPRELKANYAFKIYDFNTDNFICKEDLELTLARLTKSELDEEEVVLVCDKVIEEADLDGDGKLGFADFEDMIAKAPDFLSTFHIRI
Assay: SPR CIB2 dimerization
Type: binding
Conditions: amine-coupled CIB2 (130 RU and 226 RU), CIB2 92 nM – 46 μM injected; Ca^2+ and Mg^2+
Source text: SPR is a powerful and versatile technique to detect at real time biomolecular interactions, and it can be applied to study protein oligomerization, in particular dimerization, when care is taken to immobilize on the surface of a sensor chip low amounts of proteins under controlled conditions[27]–[29]. Two independent experiments were run following low levels of amine-coupling of CIB2 (130 RU and 226 RU, respectively) on the surface of a sensor chip. […]
by summing the volume of each residue and correcting the final volume for electrostriction as explained in Ref.4, therefore the specific volume for Rec, CaM and CIB2 were 0.712, 0.694 and 0.715 cm3/g respectively. The molecular weight used for the estimation of hydrodynamic diameter was calculated based on the effective protein sequence of each pdb file using Protein Calculator 3.4 (http://protcalc.sourceforge.net/).
Surface plasmon resonance analysis
A SensiQ Pioneer surface plasmon resonance instrument (FortéBio Pall) was employed for the investigation of the CIB2 dimerization and for the real-time monitoring of its interaction with selected peptides. For studies of on-chip CIB2 dimerization, HBS buffer (20 mM HEPES, pH 7.5, 150 mM KCl, 1 mM MgCl2, 50 µM EDTA, 0.005% Tween 20), was used both as immobilization and running buffer, with the addition of fresh 1 mM DTT just before each experiment. […]

B1: CIB2: Recombinant human CIB2, Ca^2+ and Mg^2+-binding protein (protein)
chain: MGNKQTIFTEEQLDNYQDCTFFNKKDILKLHSRFYELAPNLVPMDYRKSPIVHVPMSLIIQMPELRENPFKERIVAAFSEDGEGNLTFNDFVDMFSVLCESAPRELKANYAFKIYDFNTDNFICKEDLELTLARLTKSELDEEEVVLVCDKVIEEADLDGDGKLGFADFEDMIAKAPDFLSTFHIRI
modifications: left off: His tag, end not stated, cleaved
Question: How did the “dimerization signal by SPR” value turn out when B1 was run?
Answer: sensorgrams, except for some non-specific bulk effect; also recorded: In no case was a signal detected; also recorded: SPR did not detect dimerization
